Read-outs that look alike come from different tables or passages of the source.
Legend:
HLA-A*0201 (human) [1] = assay: competition with 125I-labelled standard peptide for purified HLA, gel filtration; ratio = IC50 standard / IC50 test peptide
HLA-A*0203 (human) [2] = assay: as above
HLA-A*0202 (human) [3] = assay: as above
HLA-A*0206 (human) [4] = assay: as above
HLA-A*6802 (human) [5] = assay: as above
HLA-A*0201 (human) [6] = assay: competition with 125I-labelled standard peptide 941.01 ([..]) for purified HLA-A*0201, gel filtration
HLA-A*0203 (human) [7] = assay: competition with 125I-labelled standard peptide 941.01 ([..]) for purified HLA-A*0203, gel filtration
HLA-A*6802 (human) [8] = assay: competition with 125I-labelled standard peptide 1072.34 ([..]) for purified HLA-A*6802, gel filtration
HLA-A*0206 (human) [9] = assay: competition with 125I-labelled standard peptide 941.01 ([..]) for purified HLA-A*0206, gel filtration
HLA-A*0202 (human) [10] = assay: competition with 125I-labelled standard peptide 941.01 ([..]) for purified HLA-A*0202, gel filtration
HLA-A*0201 (human) [11] = assay: competitive inhibition of 125I-labelled standard peptide binding to purified HLA, gel filtration; ratio = IC50 standard / IC50 test peptide
HLA-A*0203 (human) [12] = assay: as above
HLA-A*0202 (human) [13] = assay: as above
HLA-A*0206 (human) [14] = assay: as above
HLA-A*6802 (human) [15] = assay: as above; details: remark: other sources report otherwise

B1: PSA peptide QVHPQKVT, position 182, 8 amino acids (peptide)
peptide: QVHPQKVT
modifications: not checked
In the case of B1, the binding affinity ratio (ratio to standard peptide) (HLA-A*0201 (human) [1]) is reported as -0.0001, the binding affinity ratio (ratio to standard peptide) (HLA-A*0203 (human) [2]) is reported as 0.0001 and the binding affinity ratio (ratio to standard peptide) (HLA-A*0202 (human) [3]) is reported as -0.0001. It also gave a binding affinity ratio (ratio to standard peptide) (HLA-A*0206 (human) [4]) of -0.0001 and a binding affinity ratio (ratio to standard peptide) (HLA-A*6802 (human) [5]) of -0.0001.

B2: PSA peptide VASRGRAV (position 38, 8 amino acids) (peptide)
peptide: VASRGRAV
modifications: not checked
With B2 the binding affinity ratio (IC50 of standard peptide / IC50 of test peptide) (HLA-A*0201 (human) [6]) was -0.0001, the binding affinity ratio (IC50 of standard peptide / IC50 of test peptide) (HLA-A*0203 (human) [7]) was -0.0001 and the binding affinity ratio (IC50 of standard peptide / IC50 of test peptide) (HLA-A*6802 (human) [8]) was -0.0001. The binding affinity ratio (IC50 of standard peptide / IC50 of test peptide) (HLA-A*0206 (human) [9]) was -0.0001 and the binding affinity ratio (IC50 of standard peptide / IC50 of test peptide) (HLA-A*0202 (human) [10]) was -0.0001.

B3: … (Kallikrein, position 40) (peptide)
peptide: VAVYSHGWA
modifications: not checked
In the case of B3, the binding affinity ratio (HLA-A*0201 (human) [11]) is reported as -0.0001, the binding affinity ratio (HLA-A*0203 (human) [12]) is reported as 0.0002 and the binding affinity ratio (HLA-A*0202 (human) [13]) is reported as -0.0001. It also gave a binding affinity ratio (HLA-A*0206 (human) [14]) of 0.0002.

B4: … (Kallikrein, position 138) (peptide)
peptide: VLGLPTQEPA
modifications: not checked
Work on B4 yielded a binding affinity ratio (HLA-A*0201 (human) [11]; remark: other sources report otherwise) of 0.0008 and a binding affinity ratio (HLA-A*6802 (human) [15]) of -0.0001.

From US20070020327A1
